From US20160237157A1 (published 2016)

T1: mouse FGFR4-Fc chimeric protein (mouse, UniProt Q03142 17-366)
T1 chain: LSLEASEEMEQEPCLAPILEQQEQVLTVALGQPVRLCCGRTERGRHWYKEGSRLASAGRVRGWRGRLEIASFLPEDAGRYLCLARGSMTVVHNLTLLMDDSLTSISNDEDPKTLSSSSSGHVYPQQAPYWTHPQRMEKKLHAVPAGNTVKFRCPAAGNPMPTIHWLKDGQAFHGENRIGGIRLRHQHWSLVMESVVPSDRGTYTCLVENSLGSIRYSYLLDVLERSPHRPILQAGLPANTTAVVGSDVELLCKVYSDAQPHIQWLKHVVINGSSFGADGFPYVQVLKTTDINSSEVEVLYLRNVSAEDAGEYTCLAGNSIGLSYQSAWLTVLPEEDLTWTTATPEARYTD


How the values were obtained:
Assay in all cases: SPR
[1] = target: human FGFR4-Fc chimeric protein (UniProt P22455 22-369)
[2] = target: T1, mouse FGFR4-Fc chimeric protein
[3] = target: Cynomolgus FGFR4 (cynomolgus monkey)

Sequence of human FGFR4-Fc chimeric protein (P22455 22-369, change not shown): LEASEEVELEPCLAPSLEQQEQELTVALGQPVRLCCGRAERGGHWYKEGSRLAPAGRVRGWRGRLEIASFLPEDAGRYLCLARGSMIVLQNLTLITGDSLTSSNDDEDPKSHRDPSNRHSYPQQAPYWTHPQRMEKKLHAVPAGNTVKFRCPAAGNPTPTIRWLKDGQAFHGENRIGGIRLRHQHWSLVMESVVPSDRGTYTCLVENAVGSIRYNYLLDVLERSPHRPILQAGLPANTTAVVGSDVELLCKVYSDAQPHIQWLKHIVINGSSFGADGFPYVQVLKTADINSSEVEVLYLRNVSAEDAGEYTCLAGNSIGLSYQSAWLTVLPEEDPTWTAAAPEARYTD

Binder | Kd [1] | Kd [2] | Kd [3]
chimeric LD1 (chLD1) (antibody, V domains shown) VH: EVQLQQPGAVLVRPGTSVKLSCKASGYTFTNHWMNWVKQRPGQGLEWIGMIHPSDSETTLDQKFKDKATLTVDKSSSTAYMQLNRPTSEDSAVYYCTRGDISLFDYWGQGTTVTVSS VL: DIQMTQTTSSLSASLGDRVTITCRTSQDISNFLNWYQQKPDGTFKILISYTSRLHSGVPSRFSGSGSGTDYSLTISTLEQEDFATYFCQQGNALPYTFGGGTKLEIE | 700 pM | 700 pM | 
LD1 (antibody, V domains shown) VH: EVQLQQPGAVLVRPGTSVKLSCKASGYTFTNHWMNWVKQRPGQGLEWIGMIHPSDSETTLDQKFKDKATLTVDKSSSTAYMQLNRPTSEDSAVYYCTRGDISLFDYWGQGTTVTVSS VL: DIQMTQTTSSLSASLGDRVTITCRTSQDISNFLNWYQQKPDGTFKILISYTSRLHSGVPSRFSGSGSGTDYSLTISTLEQEDFATYFCQQGNALPYTFGGGTKLEIE |  |  | 800 pM
